Assay results: the RNAGym collection of RNA variant scans (doi:10.1073/pnas.2313332121)

B1: TPR t1 (parent)
chain: GACCAAUCUGCCCUCAGAGCUCGAGAACAUCUUCGGAUGCAGAGGAGGCAGGCUUCGGUGGCGCGAUAGCGCCAACGUCCUCAACCUCCAAUGCAUCCCACCACAUGAUGAUGCCUGAAGAGCCUUGGUUUUUUG

Variants of: B1
Test: polymerase ribozyme fitness, log enrichment relative to wild type (log ratio); higher = more active; in vitro selection for triplet polymerase activity
Outline: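 A single round of triplicate in vitro selection, including frozen incubation at −7 °C, was applied to PCR-built, transcribed mutant libraries of each subunit of a heterodimeric triplet polymerase ribozyme. Illumina sequencing of input and output libraries retained genotypes with ≥10 input reads and ≥1 read per output. Fitness is the base-2 logarithm of genotype enrichment divided by wild-type enrichment, from inverse-variance-weighted replicate averages.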

Q: Which “polymerase ribozyme fitness (log ratio)” value does the source give for A50U G51A U87G U106A here?
A: -2.51

Q: With G51C C53U C56U C89G U112G as the variant, how does the “polymerase ribozyme fitness (log ratio)” value read?
A: -5.96

Q: For A50U G60U G117U, which “polymerase ribozyme fitness (log ratio)” value is on record?
A: -4.36

Q: For G52A G57U C72U, which “polymerase ribozyme fitness (log ratio)” value is on record?
A: -0.842

Q: With A50U C56G C70U U78C as the variant, how does the “polymerase ribozyme fitness (log ratio)” value read?
A: -5.64

Q: With G52A G60A as the variant, how does the “polymerase ribozyme fitness (log ratio)” value read?
A: -0.303

Q: Which “polymerase ribozyme fitness (log ratio)” value does the source give for G51U C53U C88G here?
A: -2.23

Q: For G51A U96G, which “polymerase ribozyme fitness (log ratio)” value is on record?
A: -3.85

Q: For G52A A84U C101U U106G U132A, which “polymerase ribozyme fitness (log ratio)” value is on record?
A: -1.69

Q: With G51U C82U C85U C94U as the variant, how does the “polymerase ribozyme fitness (log ratio)” value read?
A: -2.49

Q: Which “polymerase ribozyme fitness (log ratio)” value does the source give for G51A C72U C82U A83G C94U U126A here?
A: -2.93

Q: With G51C U78A U106A as the variant, how does the “polymerase ribozyme fitness (log ratio)” value read?
A: -4.81

Q: Which “polymerase ribozyme fitness (log ratio)” value does the source give for G52A G93A U130G here?
A: -1.22

Q: Which “polymerase ribozyme fitness (log ratio)” value does the source give for G52A G60C C70U U109A here?
A: -5.53

Q: Which “polymerase ribozyme fitness (log ratio)” value does the source give for G51U U78C here?
A: -4.43

Q: Which “polymerase ribozyme fitness (log ratio)” value does the source give for G52C C72U C86U C89U A105U here?
A: -4.77

Q: For G51C G52C, which “polymerase ribozyme fitness (log ratio)” value is on record?
A: -2.79

Q: Which “polymerase ribozyme fitness (log ratio)” value does the source give for G51U C56A G63C C98U C99U C124A U131G here?
A: -7.53

Q: Which “polymerase ribozyme fitness (log ratio)” value does the source give for G51U C94G here?
A: -4.19

Q: Which “polymerase ribozyme fitness (log ratio)” value does the source give for A50U U112A here?
A: -0.102

Q: For G52A C53U C114U, which “polymerase ribozyme fitness (log ratio)” value is on record?
A: -2.38

Q: Which “polymerase ribozyme fitness (log ratio)” value does the source give for G52A U78G here?
A: -0.374

Q: Which “polymerase ribozyme fitness (log ratio)” value does the source give for G52A U78C here?
A: -0.748

Q: For G52A U78A, which “polymerase ribozyme fitness (log ratio)” value is on record?
A: -0.123

Q: For G52A U130C, which “polymerase ribozyme fitness (log ratio)” value is on record?
A: -0.159

Q: With A50U C53U A83G A84C C89G C115U as the variant, how does the “polymerase ribozyme fitness (log ratio)” value read?
A: -5.92

Q: With G52A C62U G117U as the variant, how does the “polymerase ribozyme fitness (log ratio)” value read?
A: -2.86

Q: For G52A U87C G117C, which “polymerase ribozyme fitness (log ratio)” value is on record?
A: -3.1

Q: With G51A A68C C70G C102U G110A as the variant, how does the “polymerase ribozyme fitness (log ratio)” value read?
A: -5.98

Q: Which “polymerase ribozyme fitness (log ratio)” value does the source give for G51A C62U C124U here?
A: -1.17

Q: Which “polymerase ribozyme fitness (log ratio)” value does the source give for G51C G61U A74C C114A G117A here?
A: -7.43

Q: For A50G U54G A95C, which “polymerase ribozyme fitness (log ratio)” value is on record?
A: -1.88

Q: With G52A A74U as the variant, how does the “polymerase ribozyme fitness (log ratio)” value read?
A: -0.719

Q: For G51U C62U U112G, which “polymerase ribozyme fitness (log ratio)” value is on record?
A: -5.35

Q: Which “polymerase ribozyme fitness (log ratio)” value does the source give for G52U A83U C98U here?
A: -2.49

Q: With G52C U59C G120U U125C as the variant, how does the “polymerase ribozyme fitness (log ratio)” value read?
A: -0.0154

Q: Which “polymerase ribozyme fitness (log ratio)” value does the source give for G52C G71C C102U C104A here?
A: -3.27

Q: For G51U G135U, which “polymerase ribozyme fitness (log ratio)” value is on record?
A: -4.28

Q: Which “polymerase ribozyme fitness (log ratio)” value does the source give for G51A C70G here?
A: -6.9

Q: Which “polymerase ribozyme fitness (log ratio)” value does the source give for A50G U116A here?
A: -3.15

Q: For G52A A118G, which “polymerase ribozyme fitness (log ratio)” value is on record?
A: -0.546

Q: For G51U U129C, which “polymerase ribozyme fitness (log ratio)” value is on record?
A: -4.13

Q: With G52U A68G G77C as the variant, how does the “polymerase ribozyme fitness (log ratio)” value read?
A: -4.82

Q: For G51A G117C, which “polymerase ribozyme fitness (log ratio)” value is on record?
A: -5.64

Q: Which “polymerase ribozyme fitness (log ratio)” value does the source give for G52A C72U U125A G128C here?
A: -3.74

Q: For A50U C56U, which “polymerase ribozyme fitness (log ratio)” value is on record?
A: -0.861

Q: With G52A C72U as the variant, how does the “polymerase ribozyme fitness (log ratio)” value read?
A: -0.913

Q: With G51C C56A G93A as the variant, how does the “polymerase ribozyme fitness (log ratio)” value read?
A: -6.3

Q: Which “polymerase ribozyme fitness (log ratio)” value does the source give for G52A C62A C123A here?
A: -1.42

Q: Which “polymerase ribozyme fitness (log ratio)” value does the source give for A50U A100C A111G here?
A: -2.38

Q: Which “polymerase ribozyme fitness (log ratio)” value does the source give for G52A C70U G120A U132A here?
A: 0.354

Q: Which “polymerase ribozyme fitness (log ratio)” value does the source give for G51A G52A C101U here?
A: -3.92

Q: Which “polymerase ribozyme fitness (log ratio)” value does the source give for A50U G61C G113U here?
A: -5.56

Q: With G51A G128A as the variant, how does the “polymerase ribozyme fitness (log ratio)” value read?
A: -5.75

Q: For G52A G120A, which “polymerase ribozyme fitness (log ratio)” value is on record?
A: 0.47

Q: Which “polymerase ribozyme fitness (log ratio)” value does the source give for G52A G57A C82U C85A A121U here?
A: -1.13

Q: For A50U U131A, which “polymerase ribozyme fitness (log ratio)” value is on record?
A: -0.622

Q: With A50U G110C as the variant, how does the “polymerase ribozyme fitness (log ratio)” value read?
A: -4.17

Q: For G51A A68G C123G, which “polymerase ribozyme fitness (log ratio)” value is on record?
A: -4.37

Q: Which “polymerase ribozyme fitness (log ratio)” value does the source give for G51U G117A here?
A: -5.11

Q: Which “polymerase ribozyme fitness (log ratio)” value does the source give for G51A C82A here?
A: -4.73

Q: With G51U U54C U59G as the variant, how does the “polymerase ribozyme fitness (log ratio)” value read?
A: -3.68

Q: For G51U G52U C56A U78A, which “polymerase ribozyme fitness (log ratio)” value is on record?
A: -3.39

Q: Which “polymerase ribozyme fitness (log ratio)” value does the source give for G51U C62G C124G here?
A: -5.32

Q: Which “polymerase ribozyme fitness (log ratio)” value does the source give for G51U G69U C88A C104U C123U here?
A: -0.711

Q: For G52A G117C, which “polymerase ribozyme fitness (log ratio)” value is on record?
A: -2.77

Q: With G52A G117U as the variant, how does the “polymerase ribozyme fitness (log ratio)” value read?
A: -0.533

Q: With G52A U87C as the variant, how does the “polymerase ribozyme fitness (log ratio)” value read?
A: 0.43

Q: With A50U G51A C64U C82A A119G as the variant, how does the “polymerase ribozyme fitness (log ratio)” value read?
A: -0.277

Q: Which “polymerase ribozyme fitness (log ratio)” value does the source give for A50U C64U C72A C79A C101A here?
A: -5.1

Q: With G51C G60C as the variant, how does the “polymerase ribozyme fitness (log ratio)” value read?
A: -4.64

Q: Which “polymerase ribozyme fitness (log ratio)” value does the source give for G51U C101U here?
A: -4.07

Q: For G51U G77C, which “polymerase ribozyme fitness (log ratio)” value is on record?
A: -1.93

Q: With G51A A74C as the variant, how does the “polymerase ribozyme fitness (log ratio)” value read?
A: -4.63

Q: For G52A G60C G61A, which “polymerase ribozyme fitness (log ratio)” value is on record?
A: -4.56

Q: For G52C C56U U78G G128C, which “polymerase ribozyme fitness (log ratio)” value is on record?
A: -2.87

Q: With G52A U87C C99U as the variant, how does the “polymerase ribozyme fitness (log ratio)” value read?
A: -3.97

Q: Which “polymerase ribozyme fitness (log ratio)” value does the source give for A50U C85U G120C U130A here?
A: -0.66

Q: With G51A U55G A66U U112A as the variant, how does the “polymerase ribozyme fitness (log ratio)” value read?
A: -6.46

Q: With A50U C76G as the variant, how does the “polymerase ribozyme fitness (log ratio)” value read?
A: -1.31

Q: With G51U G52C C80U as the variant, how does the “polymerase ribozyme fitness (log ratio)” value read?
A: -3.13

Q: With G51U C64U G117A U132A as the variant, how does the “polymerase ribozyme fitness (log ratio)” value read?
A: -5.22

Q: For G52A A68G, which “polymerase ribozyme fitness (log ratio)” value is on record?
A: -3.34
